The record followed here is patent US20180237508A1.

The target in assay [1] is Human cytokeratin-8 (CK8) at the cell surface of human cancer cell lines (human) (UniProt P05787). As to the kind of experiment: flow cytometry, HT29 cells, MAb 5 ug/mL. For orientation: Flow cytometry measures light scatter and fluorescence of single cells or particles in a stream.
For assay [2] the target is unchanged. As to the kind of experiment: flow cytometry, ISRECO-1 cells, MAb 5 ug/mL.
For assay [3] the target is unchanged. As to the kind of experiment: flow cytometry, HCT116 +/+ cells, MAb 5 ug/mL.
Assay [4] shares this target. As to the kind of experiment: flow cytometry, MCF-7 cells, MAb 5 ug/mL.
The target is the same in assay [5]. Nature of the assay: flow cytometry, ISRECO-2 cells, MAb 5 ug/mL.
Assay [6] shares this target. Nature of the assay: flow cytometry, ISRECO-3 cells, MAb 5 ug/mL.
Assay [7] has the same target. As to the kind of experiment: flow cytometry, HCT116-/- cells, MAb 5 ug/mL.

Chain of Human cytokeratin-8 (CK8) at the cell surface of human cancer cell lines (human) (P05787 whole entry): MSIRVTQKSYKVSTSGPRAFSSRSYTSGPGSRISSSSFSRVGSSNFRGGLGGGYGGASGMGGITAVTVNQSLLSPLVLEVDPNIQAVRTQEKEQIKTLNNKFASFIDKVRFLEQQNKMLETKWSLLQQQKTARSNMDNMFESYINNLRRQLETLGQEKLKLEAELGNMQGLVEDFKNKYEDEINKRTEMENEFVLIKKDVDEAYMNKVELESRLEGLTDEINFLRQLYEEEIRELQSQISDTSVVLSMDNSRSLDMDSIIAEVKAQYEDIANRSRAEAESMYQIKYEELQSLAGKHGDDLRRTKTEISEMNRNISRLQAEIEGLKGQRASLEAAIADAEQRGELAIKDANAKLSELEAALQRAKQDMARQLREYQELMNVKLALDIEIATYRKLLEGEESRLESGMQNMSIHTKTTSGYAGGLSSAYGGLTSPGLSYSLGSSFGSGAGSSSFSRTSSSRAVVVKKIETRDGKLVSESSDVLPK

As to “1E8 antibody (commercially available antibody ab28050, abcam)”, the % (labelled cells) in assay [1] amounted to 30%; in assay [2], 45%; in assay [3], 35%; in assay [4], 52%; in assay [5], 23%; in assay [6], 41%. This substance yielded a % (labelled cells) in assay [7] of 38%. For the same substance, the IFM was determined as 418 in assay [1]; 562 in assay [2]; 554 in assay [3]; 462 in assay [4]; 424 in assay [5]; 402 in assay [6]. This substance also gave an IFM in assay [7] of 530.
Take “M20 antibody (commercially available antibody C5301, Sigma)”: the % (labelled cells) came to 17% in assay [1]; 50% in assay [2]; 29% in assay [3]; 66% in assay [4]; 26% in assay [5]; 33% in assay [6]. In assay [7], this substance yielded a % (labelled cells) of 28%. Also, the IFM in assay [1] was 497; in assay [2] it was 553; in assay [3], 527; in assay [4], 476; in assay [5], 473; in assay [6], 541. This substance yielded an IFM in assay [7] of 517.
